B1: IFN-β-ser: recombinant interferon-beta serine, nasal drops tested in published prophylaxis trials (protein, UniProt P01574 22-187, looked up, variant C17S)
Interferon beta: MSYNLLGFLQRSSNFQSQKLLWQLNGRLEYCLKDRMNFDIPEEIKQLQQFQKEDAALTIYEMLQNIFAIFRQDSSSTGWNETIVENLLANVYHQINHLKTVLEEKLEKEDFTRGKLMSSLHLKRYYGRILHYLKAKEYSHCAWTIVRVEILRNFYFINRLTGYLRN
B2: IFN-λ1: type III interferon, Interferon λ-1 also known as IL-29, amino acid sequence SEQ ID NO: 5 (protein, listed as Homo sapiens)
chain: MAAAWTVVLVTLVLGLAVAGPVPTSKPTTTGKGCHIGRFKSLSPQELASFKKARDALEESLKLKNWSCSSPVFPGNWDLRLLQVRERPVALEAELALTLKVLEAAAGPALEDVLDQPLHTLHHILSQLQACIQPQPTAGPRPRGRLHHWLHRLQEAPKKESAGCLEASVTFNLFRLLTRDLKYVADGNLCLRTSTHPEST

How the values were obtained:
rhinovirus [1] = conditions: general population volunteers, Higgins et al. 1986; cited from earlier work
natural colds = conditions: Sperber et al. 1989; cited from earlier work
BEAS2B cells = experiment: Induction of type I and type III interferons in BEAS2B cells; assay type: cell-based, human
rhinovirus [2] = experiment: Virus induced cytopathic effect in HeLa cell titration assay; assay type: cell-based
RV16 [3] = experiment: RV16 virus release, viral titration of BEAS2B supernatant; assay type: cell-based, rhinovirus; conditions: BEAS2B cells treated 24 h with different doses of IFN-λ1 before infection
Experimental: (§1) The human bronchial epithelial cell-line BEAS2B was infected with RV. TaqMan® PCR was used to identify IFN-λs mRNA expression and a bioassay was employed for corresponding protein production. BEAS2B cells were treated for 24 h with different doses of IFN-λ1 before infection with RV. Both TaqMan® PCR for viral RNA in cell lysates and viral titration of the BEAS2B supernatant were performed to investigate the antiviral effect.
(§2) The human bronchial epithelial cell-line BEAS2B and bronchial primary cells from asthmatics (6) and normal patients (5) were infected with RV16. TaqMan® PCR for IFN-λ mRNA expression was used. BEAS2B cells were treated with IFN-λ1 before infection with RV16. Both TaqMan® PCR for viral RNA in cell lysates and viral titration of the BEAS2B supernatant were performed to investigate the antiviral effect. TaqMan® PCR for viral RNA in cell lysates of primary cells was used also to test weather RV16 infectivity was different between primary cells from asthmatics and normals.

RV16 [4] = experiment: RV16 viral RNA in BEAS2B cell lysates, TaqMan PCR; assay type: cell-based, rhinovirus; conditions: BEAS2B cells treated 24 h with different doses of IFN-λ1 before infection
Experimental: as §1, §2

| Molecule | effect against experimental rhinovirus infection (rhinovirus [1]) | prophylaxis of natural colds (natural colds) | induction of IFNλ-1, IFNλ2-3 and interferon β (BEAS2B cells) | virus induced cytopathic effect (rhinovirus [2]) | virus release in the supernatant by viral titration (RV16 [3]) | virus release in the supernatant by viral titration (RV16 [3]; listed as IFNλ-1) | rhinovirus 16 viral RNA in cell lysates (RV16 [4]) | rhinovirus 16 viral RNA in cell lysates (RV16 [4]; listed as IFNλ-1) |
| --- | --- | --- | --- | --- | --- | --- | --- | --- |
| B1 | promising beneficial effects | ineffective |  |  |  |  |  |  |
| B2 |  |  | induces itself as well as IFNλ2-3 and interferon β | inhibited | dose-dependent anti-viral effect | reducing virus release | dose-dependent anti-viral effect | reducing rhinovirus 16 viral RNA expression |

Reference: US8273342B2, “Anti-virus therapy for respiratory diseases” (University of Southampton, priority 2004, dated 2012)
